“And” between values parts separate entries of the source, which are not always exact repeats. Equal entries are not always repeated. Where two headings read alike, the source gives them in different places.
What was measured:
[1] = molecular target: T1, human P-cadherin expressed on the cell surface (human, UniProt P22223 108-829); test: cell-based or functional assay
[2] = molecular target: T2, cynomolgus monkey P-cadherin ECD (cynomolgus monkey); test: SPR Biacore, average
T2 construct: extracellular domain; also called cyno P-cadherin ECD; Cyno P-cadherin

[3] = molecular target: T3, muP-cad-ECD (murine, UniProt P10287 100-647); test: SPR Biacore
T3 construct: extracellular domain; also called murine P-cadherin; murine P-cadherin ECD
T3 sequence (looked up): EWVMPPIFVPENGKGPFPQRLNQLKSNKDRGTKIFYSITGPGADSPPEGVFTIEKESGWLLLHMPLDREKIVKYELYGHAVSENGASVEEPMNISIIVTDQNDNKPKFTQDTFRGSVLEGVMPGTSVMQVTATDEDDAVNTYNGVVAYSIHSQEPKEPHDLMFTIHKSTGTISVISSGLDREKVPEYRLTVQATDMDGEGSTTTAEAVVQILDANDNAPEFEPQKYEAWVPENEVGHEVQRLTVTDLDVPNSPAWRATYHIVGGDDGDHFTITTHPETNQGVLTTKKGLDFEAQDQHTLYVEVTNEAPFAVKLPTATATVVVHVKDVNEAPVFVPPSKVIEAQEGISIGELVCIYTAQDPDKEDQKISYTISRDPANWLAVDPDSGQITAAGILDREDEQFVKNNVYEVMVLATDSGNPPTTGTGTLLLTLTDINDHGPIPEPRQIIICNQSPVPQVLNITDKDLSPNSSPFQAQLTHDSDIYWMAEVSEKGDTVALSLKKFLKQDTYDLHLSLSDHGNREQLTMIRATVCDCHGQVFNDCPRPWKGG

[4] = molecular target: T1, human P-cadherin expressed on the cell …; test: cell-based or functional assay; remark: listed apart in the source
[5] = molecular target: T2, cynomolgus monkey P-cadherin ECD; test: SPR Biacore affinity
[6] = molecular target: T4, P-cadherin ECD1-Fc (human, UniProt P22223 108-215); test: protein ELISA
T4 construct: PACE was co-transfected for processing of the propeptide, so both are left out here; not shown: cleavable linker; hinge and CH2 and CH3 domains of human IgG1
T4 sequence (P22223 108-215): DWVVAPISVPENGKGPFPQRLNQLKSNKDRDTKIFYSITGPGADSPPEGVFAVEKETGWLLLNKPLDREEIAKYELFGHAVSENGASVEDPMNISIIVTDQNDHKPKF

[7] = molecular target: T5, P-cadherin ECD1-2-Fc (human, UniProt P22223 108-328); test: protein ELISA
T5 construct: Signal peptide and pro-peptide of the construct left out (see ECD1-Fc); not shown: cleavable linker; hinge and CH2 and CH3 domains of human IgG1
T5 sequence (P22223 108-328): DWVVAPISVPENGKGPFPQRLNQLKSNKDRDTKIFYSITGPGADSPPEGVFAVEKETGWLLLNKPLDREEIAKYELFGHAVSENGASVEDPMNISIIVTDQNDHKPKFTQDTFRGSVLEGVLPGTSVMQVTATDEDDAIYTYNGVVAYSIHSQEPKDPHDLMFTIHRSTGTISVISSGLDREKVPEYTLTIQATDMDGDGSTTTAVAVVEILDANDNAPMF

[8] = molecular target: T2, cynomolgus monkey P-cadherin ECD; test: SPR Biacore pH 7.4, average
[9] = molecular target: T2, cynomolgus monkey P-cadherin ECD; test: SPR Biacore
[10] = molecular target: T2, cynomolgus monkey P-cadherin ECD; test: SPR Biacore pH 7.4
[11] = molecular target: T2, cynomolgus monkey P-cadherin ECD; test: SPR Biacore affinity; remark: listed apart in the source
[12] = molecular target: T1, human P-cadherin expressed on the cell …; test: cell-based or functional assay; remark: listed apart in the source
[13] = molecular target: T3, muP-cad-ECD; test: ELISA, recombinant protein
[14] = molecular target: T6, huP-cad-ECD (human, UniProt P22223 108-654); test: ELISA, recombinant protein
T6 construct: extracellular domain; also called recombinant human P-cadherin; human P-cadherin-ECD
T6 sequence (P22223 108-654): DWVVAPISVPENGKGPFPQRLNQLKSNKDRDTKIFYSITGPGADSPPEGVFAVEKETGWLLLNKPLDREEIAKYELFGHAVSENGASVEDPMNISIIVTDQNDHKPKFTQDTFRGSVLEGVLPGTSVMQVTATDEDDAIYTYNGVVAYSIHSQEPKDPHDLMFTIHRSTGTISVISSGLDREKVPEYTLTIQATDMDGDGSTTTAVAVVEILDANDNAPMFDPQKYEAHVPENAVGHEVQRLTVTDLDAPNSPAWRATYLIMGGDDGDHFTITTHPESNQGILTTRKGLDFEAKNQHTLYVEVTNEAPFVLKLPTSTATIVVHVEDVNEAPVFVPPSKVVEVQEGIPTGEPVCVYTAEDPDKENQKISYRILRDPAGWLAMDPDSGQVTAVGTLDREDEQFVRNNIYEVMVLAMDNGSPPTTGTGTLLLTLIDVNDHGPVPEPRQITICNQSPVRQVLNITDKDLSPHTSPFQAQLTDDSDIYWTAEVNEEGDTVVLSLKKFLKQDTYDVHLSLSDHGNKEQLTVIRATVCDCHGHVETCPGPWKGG

[15] = molecular target: T7, huP-cad-ECD biotinylated (human, UniProt P22223 108-654, biotinylated (sites not given)); test: ELISA, recombinant protein
T7 construct: extracellular domain
T7 sequence (P22223 108-654): as above

[16] = molecular target: T1, human P-cadherin expressed on the cell …; test: cell ELISA, SW480-huPcad cells
[17] = molecular target: T1, human P-cadherin expressed on the cell …; test: cell ELISA, CHO-huPcad cells
[18] = molecular target: T1, human P-cadherin expressed on the cell …; test: cell ELISA, H1650 cells

T1 sequence (P22223 108-829): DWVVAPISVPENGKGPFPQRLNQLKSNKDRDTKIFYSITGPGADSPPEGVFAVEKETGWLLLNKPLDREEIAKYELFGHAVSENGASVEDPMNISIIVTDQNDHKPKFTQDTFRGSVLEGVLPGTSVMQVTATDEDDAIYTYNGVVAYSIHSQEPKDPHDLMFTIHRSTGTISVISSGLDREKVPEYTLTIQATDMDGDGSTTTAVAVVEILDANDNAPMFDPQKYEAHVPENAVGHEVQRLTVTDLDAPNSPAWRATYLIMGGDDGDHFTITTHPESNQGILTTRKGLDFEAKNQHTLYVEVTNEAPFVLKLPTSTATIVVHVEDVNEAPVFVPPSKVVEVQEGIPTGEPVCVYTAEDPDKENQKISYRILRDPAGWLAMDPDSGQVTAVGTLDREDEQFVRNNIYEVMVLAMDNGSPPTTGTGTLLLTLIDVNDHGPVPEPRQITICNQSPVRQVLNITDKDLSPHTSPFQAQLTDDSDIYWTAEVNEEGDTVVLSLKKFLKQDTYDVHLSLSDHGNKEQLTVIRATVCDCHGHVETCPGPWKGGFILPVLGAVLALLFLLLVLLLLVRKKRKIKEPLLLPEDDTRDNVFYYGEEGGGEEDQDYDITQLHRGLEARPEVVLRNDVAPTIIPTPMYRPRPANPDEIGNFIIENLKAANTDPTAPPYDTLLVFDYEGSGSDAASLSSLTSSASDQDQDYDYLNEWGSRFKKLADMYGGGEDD

B1: 153 LP-DART (bispecific antibody)
chain 1: QSVLTQPPSVSAAPGQKVTISCSGSSSNIGNNYVSWYQQLPGTAPKLLIYDNNKRPSGIPDRFSGSKSGTSATLGITGLQTGDEADYYCGTWDSSLSGVVFGGGTKLTVLGGGSGGGGEVQLVESGGGLVQPGGSLRLSCAASGFTFSTYAMNWVRQAPGKGLEWVGRIRSKYNNYATYYADSVKGRFTISRDDSKNSLYLQMNSLKTEDTAVYYCVRHGNFGNSYVSWFAYWGQGTLVTVSSGCPPCPAPEAAGAPSVFLFPPKPKDTLMISRTPEVTCVVVDVSHEDPEVKFNWYVDGVEVHNAKTKPREEQYNSTYRVVSVLTVLHQDWLNGKEYKCKVSNKALPAPIEKTISKAKGQPREPQVCTLPPSREEMTKNQVSLWCLVKGFYPSDIAVEWESNGQPENNYKTTPPVLDSDGSFFLYSKLTVDKSRWQQGNVFSCSVMHEALHNHYTQKSLSLSPG
chain 2: QAVVTQEPSLTVSPGGTVTLTCRSSTGAVTTSNYANWVQQKPGQAPRGLIGGTNKRAPWTPARFSGSLLGGKAALTITGAQAEDEADYYCALWYSNLWVFGGGTKLTVLGGGGSGGGGEVQLVQSGAEVKKPGASVKVSCKASGYTFTSYGISWVRQAPGQGLEWMGWISAYNGNTNYAQKLQGRVTMTTDTSTSTAYMELRSLRSDDTAVYYCATIDTANAFGIWGQGTMVTVSSGCPPCPAPEAAGAPSVFLFPPKPKDTLMISRTPEVTCVVVDVSHEDPEVKFNWYVDGVEVHNAKTKPREEQYNSTYRVVSVLTVLHQDWLNGKEYKCKVSNKALPAPIEKTISKAKGQPREPQVYTLPPCREEMTKNQVSLSCAVKGFYPSDIAVEWESNGQPENNYKTTPPVLDSDGSFFLVSKLTVDKSRWQQGNVFSCSVMHEALHNHYTQKSLSLSPG
CTL assay on CHO P-cadherin cells, cell viability after 48 hours, EC50 [1]: 0.00041 nM | Kd [2]: 0.521 nM | binding result [3]: no binding | DU145 CTL (LDH) EC50 [4]: 0.0006 nM | HCT116 CTL (Luc) EC50 [4]: 0.0004 nM | Kd [5]: 0.521 nM | binding result [6]: no binding | binding result [7]: no binding | Kd [8]: 0.521 nM | Kd [9]: 0.683 nM and 0.359 nM | koff [9]: 0.0002 s⁻¹ and 0.000209 s⁻¹ | kon [9]: 293000 M⁻¹ s⁻¹ and 581000 M⁻¹ s⁻¹ | t½ [9]: 54.4 min and 52.2 min | Kd [10]: 0.683 nM and 0.359 nM | koff [10]: 0.0002 s⁻¹ and 0.000209 s⁻¹ | kon [10]: 293000 M⁻¹ s⁻¹ and 581000 M⁻¹ s⁻¹ | t½ [10]: 54.4 min and 52.2 min

B2: 154 LP-DART (bispecific antibody)
chain 1: QSVLTQPPSVSAAPGQKVTISCSGSSSNIGNNYVSWYQQLPGTAPKLLIYDNNKRPSGIPDRFSGSKSGTSATLGITGLQTGDEADYYCGTWDSSLSSYVFGTGTKVTVLGGGSGGGGEVQLVESGGGLVQPGGSLRLSCAASGFTFSTYAMNWVRQAPGKGLEWVGRIRSKYNNYATYYADSVKGRFTISRDDSKNSLYLQMNSLKTEDTAVYYCVRHGNFGNSYVSWFAYWGQGTLVTVSSGCPPCPAPEAAGAPSVFLFPPKPKDTLMISRTPEVTCVVVDVSHEDPEVKFNWYVDGVEVHNAKTKPREEQYNSTYRVVSVLTVLHQDWLNGKEYKCKVSNKALPAPIEKTISKAKGQPREPQVCTLPPSREEMTKNQVSLWCLVKGFYPSDIAVEWESNGQPENNYKTTPPVLDSDGSFFLYSKLTVDKSRWQQGNVFSCSVMHEALHNHYTQKSLSLSPG
chain 2: QAVVTQEPSLTVSPGGTVTLTCRSSTGAVTTSNYANWVQQKPGQAPRGLIGGTNKRAPWTPARFSGSLLGGKAALTITGAQAEDEADYYCALWYSNLWVFGGGTKLTVLGGGGSGGGGEVQLVQSGAEVKKPGASVKVSCKASGYTFTSYGISWVRQAPGQGLEWMGWISAYNGNTNYAQKLQGRVTMTTDTSTSTAYMELRSLRSDDTAVYYCATIDTATAFDIWGQGTMVTVSSGCPPCPAPEAAGAPSVFLFPPKPKDTLMISRTPEVTCVVVDVSHEDPEVKFNWYVDGVEVHNAKTKPREEQYNSTYRVVSVLTVLHQDWLNGKEYKCKVSNKALPAPIEKTISKAKGQPREPQVYTLPPCREEMTKNQVSLSCAVKGFYPSDIAVEWESNGQPENNYKTTPPVLDSDGSFFLVSKLTVDKSRWQQGNVFSCSVMHEALHNHYTQKSLSLSPG
Kd [2]: 5.5 nM | DU145 CTL (LDH) EC50 [4]: 0.0017 nM | HCT116 CTL (Luc) EC50 [4]: 0.0072 nM | Kd [5]: 5.5 nM | Kd [9]: 5.47 nM and 5.53 nM | koff [9]: 0.00332 s⁻¹ and 0.00343 s⁻¹ | kon [9]: 607000 M⁻¹ s⁻¹ and 620000 M⁻¹ s⁻¹ | t½ [9]: 3.27 min and 3.18 min

B3: 153 VF-DART (bispecific antibody)
chain 1: QSVLTQPPSVSAAPGQKVTISCSGSSSNIGNNYVSWYQQLPGTAPKLLIYDNNKRPSGIPDRFSGSKSGTSATLGITGLQTGDEADYYCGTWDSSLSGVVFGGGTKLTVLGGGSGGGGEVQLVESGGGLVQPGGSLRLSCAASGFTFSTYAMNWVRQAPGKGLEWVGRIRSKYNNYATYYADSVKGRFTISRDDSKNSLYLQMNSLKTEDTAVYYCVRHGNFGNSYVSWFAYWGQGTLVTVSS
chain 2: QAVVTQEPSLTVSPGGTVTLTCRSSTGAVTTSNYANWVQQKPGQAPRGLIGGTNKRAPWTPARFSGSLLGGKAALTITGAQAEDEADYYCALWYSNLWVFGGGTKLTVLGGGGSGGGGEVQLVQSGAEVKKPGASVKVSCKASGYTFTSYGISWVRQAPGQGLEWMGWISAYNGNTNYAQKLQGRVTMTTDTSTSTAYMELRSLRSDDTAVYYCATIDTANAFGIWGQGTMVTVSS
modifications: One interchain disulfide between the Linker 2 cysteines; these linkers are left out of the letters.
notes: not shown: The C-terminal cysteine Linker 2 on each chain
Kd [11]: 0.31 nM | DU145 CTL (LDH) EC50 [12]: 0.0004 nM | HCT116 CTL (Luc) EC50 [12]: 0.0005 nM | Kd [8]: 0.318 nM | Kd [10]: 0.332 nM and 0.304 nM | koff [10]: 0.00024 s⁻¹ and 0.000229 s⁻¹ | kon [10]: 722000 M⁻¹ s⁻¹ and 752000 M⁻¹ s⁻¹ | t½ [10]: 45.4 min and 47.6 min

B4: 154 VF-DART (bispecific antibody, not shown: small tags and cut ends)
chain 1: QSVLTQPPSVSAAPGQKVTISCSGSSSNIGNNYVSWYQQLPGTAPKLLIYDNNKRPSGIPDRFSGSKSGTSATLGITGLQTGDEADYYCGTWDSSLSSYVFGTGTKVTVLGGGSGGGGEVQLVESGGGLVQPGGSLRLSCAASGFTFSTYAMNWVRQAPGKGLEWVGRIRSKYNNYATYYADSVKGRFTISRDDSKNSLYLQMNSLKTEDTAVYYCVRHGNFGNSYVSWFAYWGQGTLVTVSS
chain 2: QAVVTQEPSLTVSPGGTVTLTCRSSTGAVTTSNYANWVQQKPGQAPRGLIGGTNKRAPWTPARFSGSLLGGKAALTITGAQAEDEADYYCALWYSNLWVFGGGTKLTVLGGGGSGGGGEVQLVQSGAEVKKPGASVKVSCKASGYTFTSYGISWVRQAPGQGLEWMGWISAYNGNTNYAQKLQGRVTMTTDTSTSTAYMELRSLRSDDTAVYYCATIDTATAFDIWGQGTMVTVSS
Kd [11]: 2.85 nM | DU145 CTL (LDH) EC50 [12]: 0.0024 nM | HCT116 CTL (Luc) EC50 [12]: 0.008 nM

B5: 35 scFv-Fc (Fc fusion)
VH: EVQLVQSGAEVKKPGASVKVSCKASGYTFTSYGISWVRQAPGQGLEWMGWISAYNGNTNYAQKLQGRVTMTTDTSTSTAYMELRSLRSDDTAVYYCATIDTASAFDIWGQGTMVTVSS
VL: QSVLTQPPSVSAAPGQKVTISCSGSSSNIGNNYVSWYQQLPGTAPKLLIYDNNKRPSGIPDRFSGSKSGTSATLGITGLQTGDEADYYCGTWDSSLSAVVFGGGTKLTVL
notes: also called P-CAD 35; P-cadherin clone 35 scFv-Fc
binding result [13]: no binding | EC50 [14]: 2.5 nM | EC50 [15]: 0.0176 nM | EC50 [16]: 0.173 nM | EC50 [17]: 0.276 nM | EC50 [18]: 0.163 nM

B6: 33 scFv-Fc (Fc fusion)
VH: QMQLVQSGAEVKKPGASVKVSCKASGYTFTSYGISWVRQAPGQGLEWMGWISAYNGNTNYAQKLQGRVTMTTDTSTSTAYMELRSLRSDDTAVYYCALIGSGVAFDIWGQGTMVTVSS
VL: QSVLTQPPSVSAAPGQKVTISCSGSSSNIGNNYVSWYQQLPGTAPKLLIYDNNKRPSGIPDRFSGSKSGTSATLGITGLQTGDEADYYCGTWDSSLSAYVFGTGTKVTVL
notes: also called P-CAD 33; P-cadherin clone 33 scFv-Fc
binding result [13]: no binding | EC50 [14]: 3.46 nM | EC50 [15]: 0.101 nM | EC50 [16]: 0.424 nM | EC50 [17]: 0.493 nM | EC50 [18]: 0.567 nM

B7: 34 scFv-Fc (Fc fusion)
VH: EVQLVQSGAEVKKPGASVKVSCKASGYTFTSYGISWVRQAPGQGLEWMGWISAYNGNTNYAQKLQGRVTMTTDTSTSTAYMELRSLRSDDTAVYYCATIDTASAFDIWGQGTMVTVSS
VL: QSVVTQPPSVSAAPGQKVTISCSGSSSNIGNNYVSWYQQLPGTAPKLLIYDNNKRPSGIPDRFSGSKSGTSATLGITGLQTGDEADYYCGTWDSSLSAWVFGGGTKLTVL
notes: also called P-CAD 34; P-cadherin clone 34 scFv-Fc
binding result [13]: no binding | EC50 [14]: 11.2 nM | EC50 [15]: 0.194 nM | EC50 [16]: 0.442 nM | EC50 [17]: 0.394 nM | EC50 [18]: 0.494 nM
